Results from article PMC7026639.
Where two headings read alike, the source gives them in different places.

B1: 14-bp cognate oligo (dsDNA)
DNA 1: TCCAAGCGCAACAG
DNA 2: CTGTTGCGCTTGGA
B2: 13-bp iodo oligo (dsDNA)
DNA 1: TCCAAGCGCAACG
DNA 2: CGUTGCGCTUGGA
modifications: 5-iodo-uridine at positions 3 and 10 of strand 2 (printed as I, written as U)

Legend:
[1] = molecular target: T1, HhaI restriction endonuclease (R.HhaI) (Haemophilus haemolyticus NEB129 (now …, UniProt A0ABF7PI58 1-258)); experiment: X-ray crystallography
[2] = molecular target: T1, HhaI restriction endonuclease (R.HhaI); experiment: X-ray crystallography; remark: listed apart in the source

Binder | binding result [1] | binding result [2]
B1 | binds | 
B2 |  | binds
